Measurements: paper PMC7748022
Where a chain is given by its changes, count along the chain named.

T1: GST-PIF4 (UniProt Q8W2F3 1-430)
T1 sequence: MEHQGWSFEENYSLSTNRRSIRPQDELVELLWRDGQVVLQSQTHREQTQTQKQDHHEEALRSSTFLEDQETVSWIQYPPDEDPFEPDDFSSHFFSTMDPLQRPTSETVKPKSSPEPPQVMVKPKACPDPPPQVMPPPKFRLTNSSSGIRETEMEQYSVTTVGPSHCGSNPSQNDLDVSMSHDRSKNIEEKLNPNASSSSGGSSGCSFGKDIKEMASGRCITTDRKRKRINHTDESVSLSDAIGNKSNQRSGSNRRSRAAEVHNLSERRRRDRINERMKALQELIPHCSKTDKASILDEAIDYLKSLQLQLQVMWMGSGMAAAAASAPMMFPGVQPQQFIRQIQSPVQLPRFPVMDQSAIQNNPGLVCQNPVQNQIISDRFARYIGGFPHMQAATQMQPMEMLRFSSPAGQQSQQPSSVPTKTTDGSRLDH

B1: PIF4 promoter probe (G-box) (dsDNA)
DNA 1: ATTCCAACACAATGTCCCAGAACTTGCCACGTGTCGTTCATTTCAAAAGATTGCAGTACT
DNA 2: AGTACTGCAATCTTTTGAAATGAACGACACGTGGCAAGTTCTGGGACATTGTGTTGGAAT
B2: PIF4-MU probe (CACGTG to AACGTG) (dsDNA)
DNA 1: B1 DNA 1 with C28A
DNA 2: B1 DNA 2 with G33T

How the values were obtained:
GST-PIF4 [1] = target: T1, GST-PIF4; assay: EMSA
GST-PIF4 [2] = target: T1, GST-PIF4; assay: competition

Row | Binder | binding result (GST-PIF4 [1]) | binding result (GST-PIF4 [2])
1 | B1 | binds | 
2 | B2 |  | no binding
